Where no end group is shown, it is not given here.
T1: human GRF receptor (human, UniProt Q02643 23-423)
T1 sequence (looked up): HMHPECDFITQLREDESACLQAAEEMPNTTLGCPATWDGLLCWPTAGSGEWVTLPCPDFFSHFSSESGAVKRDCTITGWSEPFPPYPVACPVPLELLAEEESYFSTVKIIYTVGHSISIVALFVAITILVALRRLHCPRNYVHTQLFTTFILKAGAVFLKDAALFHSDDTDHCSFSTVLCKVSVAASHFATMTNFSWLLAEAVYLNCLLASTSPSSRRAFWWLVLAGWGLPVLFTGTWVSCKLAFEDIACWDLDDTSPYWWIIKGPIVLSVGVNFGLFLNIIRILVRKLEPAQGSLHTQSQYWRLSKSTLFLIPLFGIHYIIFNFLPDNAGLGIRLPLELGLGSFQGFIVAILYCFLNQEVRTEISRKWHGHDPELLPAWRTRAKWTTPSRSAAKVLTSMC

B1: Trans-3-hexenoyl-YADAIFTDSYRKVLAQLSARQDILAR-NH2 (SEQ ID NO: 45) (peptide)
peptide: YADAIFTDSYRKVLAQLSARQDILAR
HELM: PEPTIDE1{[CC/C=C/CC(=O)[*:2]].Y.A.D.A.I.F.T.D.S.Y.R.K.V.L.A.Q.L.S.A.R.Q.D.I.L.A.R.[am]}$$$$V2.0
SMILES: CC/C=C/CC(=O)N[C@@H](Cc1ccc(O)cc1)C(=O)N[C@@H](C)C(=O)N[C@@H](CC(=O)O)C(=O)N[C@@H](C)C(=O)N[C@H](C(=O)N[C@@H](Cc1ccccc1)C(=O)N[C@H](C(=O)N[C@@H](CC(=O)O)C(=O)N[C@@H](CO)C(=O)N[C@@H](Cc1ccc(O)cc1)C(=O)N[C@@H](CCCNC(=N)N)C(=O)N[C@@H](CCCCN)C(=O)N[C@H](C(=O)N[C@@H](CC(C)C)C(=O)N[C@@H](C)C(=O)N[C@@H](CCC(N)=O)C(=O)N[C@@H](CC(C)C)C(=O)N[C@@H](CO)C(=O)N[C@@H](C)C(=O)N[C@@H](CCCNC(=N)N)C(=O)N[C@@H](CCC(N)=O)C(=O)N[C@@H](CC(=O)O)C(=O)N[C@H](C(=O)N[C@@H](CC(C)C)C(=O)N[C@@H](C)C(=O)N[C@@H](CCCNC(=N)N)C(N)=O)[C@@H](C)CC)C(C)C)[C@@H](C)O)[C@@H](C)CC
B2: YGDAIFTDSYRKVLAQLKARQDILARAARAAR-HoSer-NH2 (SEQ ID NO: 36) (peptide)
peptide: YGDAIFTDSYRKVLAQLKARQDILARAARAARX
HELM: PEPTIDE1{Y.G.D.A.I.F.T.D.S.Y.R.K.V.L.A.Q.L.K.A.R.Q.D.I.L.A.R.A.A.R.A.A.R.[O=C([C@H](CCO)N[*:1])[*:2]].[am]}$$$$V2.0; N-terminus assumed
SMILES: CC[C@H](C)[C@H](NC(=O)[C@H](C)NC(=O)[C@H](CC(=O)O)NC(=O)CNC(=O)[C@@H](N)Cc1ccc(O)cc1)C(=O)N[C@@H](Cc1ccccc1)C(=O)N[C@H](C(=O)N[C@@H](CC(=O)O)C(=O)N[C@@H](CO)C(=O)N[C@@H](Cc1ccc(O)cc1)C(=O)N[C@@H](CCCNC(=N)N)C(=O)N[C@@H](CCCCN)C(=O)N[C@H](C(=O)N[C@@H](CC(C)C)C(=O)N[C@@H](C)C(=O)N[C@@H](CCC(N)=O)C(=O)N[C@@H](CC(C)C)C(=O)N[C@@H](CCCCN)C(=O)N[C@@H](C)C(=O)N[C@@H](CCCNC(=N)N)C(=O)N[C@@H](CCC(N)=O)C(=O)N[C@@H](CC(=O)O)C(=O)N[C@H](C(=O)N[C@@H](CC(C)C)C(=O)N[C@@H](C)C(=O)N[C@@H](CCCNC(=N)N)C(=O)N[C@@H](C)C(=O)N[C@@H](C)C(=O)N[C@@H](CCCNC(=N)N)C(=O)N[C@@H](C)C(=O)N[C@@H](C)C(=O)N[C@@H](CCCNC(=N)N)C(=O)N[C@@H](CCO)C(N)=O)[C@@H](C)CC)C(C)C)[C@@H](C)O
B3: Y-a-DAIFTDSYRKVLAQLKARQDILARAARAAR-HoSer-NH2 (SEQ ID NO: 37) (peptide)
peptide: YXDAIFTDSYRKVLAQLKARQDILARAARAARX
HELM: PEPTIDE1{Y.[dA].D.A.I.F.T.D.S.Y.R.K.V.L.A.Q.L.K.A.R.Q.D.I.L.A.R.A.A.R.A.A.R.[O=C([C@H](CCO)N[*:1])[*:2]].[am]}$$$$V2.0; N-terminus assumed
SMILES: CC[C@H](C)[C@H](NC(=O)[C@H](C)NC(=O)[C@H](CC(=O)O)NC(=O)[C@@H](C)NC(=O)[C@@H](N)Cc1ccc(O)cc1)C(=O)N[C@@H](Cc1ccccc1)C(=O)N[C@H](C(=O)N[C@@H](CC(=O)O)C(=O)N[C@@H](CO)C(=O)N[C@@H](Cc1ccc(O)cc1)C(=O)N[C@@H](CCCNC(=N)N)C(=O)N[C@@H](CCCCN)C(=O)N[C@H](C(=O)N[C@@H](CC(C)C)C(=O)N[C@@H](C)C(=O)N[C@@H](CCC(N)=O)C(=O)N[C@@H](CC(C)C)C(=O)N[C@@H](CCCCN)C(=O)N[C@@H](C)C(=O)N[C@@H](CCCNC(=N)N)C(=O)N[C@@H](CCC(N)=O)C(=O)N[C@@H](CC(=O)O)C(=O)N[C@H](C(=O)N[C@@H](CC(C)C)C(=O)N[C@@H](C)C(=O)N[C@@H](CCCNC(=N)N)C(=O)N[C@@H](C)C(=O)N[C@@H](C)C(=O)N[C@@H](CCCNC(=N)N)C(=O)N[C@@H](C)C(=O)N[C@@H](C)C(=O)N[C@@H](CCCNC(=N)N)C(=O)N[C@@H](CCO)C(N)=O)[C@@H](C)CC)C(C)C)[C@@H](C)O
B4: Trans-3-hexenoyl-YADAIFTDSYRKVLAQLSARQDIMSR-NH2 (SEQ ID NO: 44) (peptide)
peptide: YADAIFTDSYRKVLAQLSARQDIMSR
HELM: PEPTIDE1{[CC/C=C/CC(=O)[*:2]].Y.A.D.A.I.F.T.D.S.Y.R.K.V.L.A.Q.L.S.A.R.Q.D.I.M.S.R.[am]}$$$$V2.0
SMILES: CC/C=C/CC(=O)N[C@@H](Cc1ccc(O)cc1)C(=O)N[C@@H](C)C(=O)N[C@@H](CC(=O)O)C(=O)N[C@@H](C)C(=O)N[C@H](C(=O)N[C@@H](Cc1ccccc1)C(=O)N[C@H](C(=O)N[C@@H](CC(=O)O)C(=O)N[C@@H](CO)C(=O)N[C@@H](Cc1ccc(O)cc1)C(=O)N[C@@H](CCCNC(=N)N)C(=O)N[C@@H](CCCCN)C(=O)N[C@H](C(=O)N[C@@H](CC(C)C)C(=O)N[C@@H](C)C(=O)N[C@@H](CCC(N)=O)C(=O)N[C@@H](CC(C)C)C(=O)N[C@@H](CO)C(=O)N[C@@H](C)C(=O)N[C@@H](CCCNC(=N)N)C(=O)N[C@@H](CCC(N)=O)C(=O)N[C@@H](CC(=O)O)C(=O)N[C@H](C(=O)N[C@@H](CCSC)C(=O)N[C@@H](CO)C(=O)N[C@@H](CCCNC(=N)N)C(N)=O)[C@@H](C)CC)C(C)C)[C@@H](C)O)[C@@H](C)CC
B5: Trans-3-hexenoyl-YADAIFTDSYRKVLAQLSARQDILS-r-NH2 (SEQ ID NO: 46) (peptide)
peptide: YADAIFTDSYRKVLAQLSARQDILSX
HELM: PEPTIDE1{[CC/C=C/CC(=O)[*:2]].Y.A.D.A.I.F.T.D.S.Y.R.K.V.L.A.Q.L.S.A.R.Q.D.I.L.S.[dR].[am]}$$$$V2.0
SMILES: CC/C=C/CC(=O)N[C@@H](Cc1ccc(O)cc1)C(=O)N[C@@H](C)C(=O)N[C@@H](CC(=O)O)C(=O)N[C@@H](C)C(=O)N[C@H](C(=O)N[C@@H](Cc1ccccc1)C(=O)N[C@H](C(=O)N[C@@H](CC(=O)O)C(=O)N[C@@H](CO)C(=O)N[C@@H](Cc1ccc(O)cc1)C(=O)N[C@@H](CCCNC(=N)N)C(=O)N[C@@H](CCCCN)C(=O)N[C@H](C(=O)N[C@@H](CC(C)C)C(=O)N[C@@H](C)C(=O)N[C@@H](CCC(N)=O)C(=O)N[C@@H](CC(C)C)C(=O)N[C@@H](CO)C(=O)N[C@@H](C)C(=O)N[C@@H](CCCNC(=N)N)C(=O)N[C@@H](CCC(N)=O)C(=O)N[C@@H](CC(=O)O)C(=O)N[C@H](C(=O)N[C@@H](CC(C)C)C(=O)N[C@@H](CO)C(=O)N[C@H](CCCNC(=N)N)C(N)=O)[C@@H](C)CC)C(C)C)[C@@H](C)O)[C@@H](C)CC

Molecular target: T1, human GRF receptor
Test: cell-based or functional assay

Compared with B1, B2 is 38-fold lower in “EC50 as assessed by alkaline phosphatase (AP) induction” value (“EC50 as assessed” below): 7.55 nM for the first, 0.2 nM for the second.

Compared with B3, B4 is 49-fold higher in “EC50 as assessed” value: 0.2 nM for the first, 9.73 nM for the second.

First: YGDAIFTDSYRKVLAQLKARQDILARAARAAR-NH2 [YGDAIFTDSYRKVLAQLKARQDILARAARAAR-NH2 (SEQ ID NO: 34)]
Second: YLDAIFTDSYRKVLAQLKARQDILARAARAAR-NH2 [YLDAIFTDSYRKVLAQLKARQDILARAARAAR-NH2 (SEQ ID NO: 35)]
The “EC50 as assessed” value of the first is 13-fold lower: 0.2 nM for the first, 2.52 nM for the second.

B5 was tested, and the “EC50 as assessed” value was 15.1 nM.

Reference: patent publication US20120270784A1 (THERATECHNOLOGIES, published 2012)
